Here are results for three molecules from publication PMC5413942, “Gating of TonB-dependent transporters by substrate-specific forced remodelling” (Nature Communications, 2017).

To fix the notation:
B1: TonB_(ΔTMD) (soluble TonB, residues 33–239, deletion of the N-terminal transmembrane helix) (domain or fragment)
chain: not shown
notes: Gly-Cys between the (His)6 tag and TonB, translated from the printed forward primer (GGCTGT); the cysteine is for AFM surface attachment; TonB of E. coli, cloned from the genome of E. coli BL21 (DE3), residues 33-239 (without the transmembrane domain, residues 1-32); the forward primer begins at HQVIELP; In the AFM experiments the engineered cysteine was coupled to NHS-PEG24-maleimide on the …
B2: Ton box peptide from BtuB (TB_(BtuB)) labelled with Alexa Fluor 488 C5 maleimide (peptide)
peptide: PDTLVVTANRGSWSC(Alexa Fluor 488 C5 maleimide)
notes: also called TB_(BtuB)-Alexa fluor 488; Ton box_(BtuB) peptide; source: synthetic peptide
B3: TonBCTD (globular C-terminal domain of TonB without the linker) (domain or fragment)
chain: not shown
notes: Gly-Cys between the (His)6 tag and TonBCTD, translated from the printed forward primer (GGATGT); the cysteine is for AFM surface attachment; C-terminal domain of TonB of E. coli; also called TonB C-terminal domain; source: E. coli BL21 (DE3), pET-23a(+), purified (Ni Sepharose, size exclusion chromatography)

Numbering of substitutions follows the chain as printed. Where no end group is shown, it is not given here.

Conditions in all cases: both partners purified
Assay [1] concerns the target T1, BtuB XL_(loop) (BtuB V29C/V45C) (E. coli, UniProt P06129 21-614, V29C | V45C, disulfide bridge between C29 and C45 (reduced on addition of 2 mM DTT)).
T1 sequence (looked up): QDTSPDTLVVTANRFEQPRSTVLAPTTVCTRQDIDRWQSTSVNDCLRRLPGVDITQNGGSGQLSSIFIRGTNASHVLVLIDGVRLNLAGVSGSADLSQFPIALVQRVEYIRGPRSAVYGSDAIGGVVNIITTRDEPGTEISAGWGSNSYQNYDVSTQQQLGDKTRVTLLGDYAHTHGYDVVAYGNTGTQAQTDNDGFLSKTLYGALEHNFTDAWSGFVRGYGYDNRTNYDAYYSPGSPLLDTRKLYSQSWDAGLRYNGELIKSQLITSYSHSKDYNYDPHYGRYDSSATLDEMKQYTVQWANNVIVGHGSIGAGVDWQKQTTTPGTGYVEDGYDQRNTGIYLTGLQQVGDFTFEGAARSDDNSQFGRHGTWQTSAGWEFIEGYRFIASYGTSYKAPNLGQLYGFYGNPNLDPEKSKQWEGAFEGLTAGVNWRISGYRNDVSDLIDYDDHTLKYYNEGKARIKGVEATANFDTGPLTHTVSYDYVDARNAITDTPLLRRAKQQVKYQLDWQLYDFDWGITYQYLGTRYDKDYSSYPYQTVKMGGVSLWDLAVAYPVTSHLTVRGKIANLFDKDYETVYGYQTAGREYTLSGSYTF
As to the kind of experiment: single-molecule force spectroscopy (AFM); TonB construct on the AFM probe through NHS-PEG24-maleimide, TBDT (BtuB, its variants or FhuA) in E. coli polar lipid extract liposomes with its ligand adsorbed on mica; dwell 1 s, retraction 1,000 nm s^-1 unless stated otherwise; 25 mM Tris-HCl pH 8.0, 128 mM NaCl, 25 °C; 2 mM DTT added where stated.

Assay [2] concerns the target T2, BtuB3A (BtuB I80A/L85A/L96A) (E. coli, UniProt P06129 21-614, I80A | L85A | L96A).
T2 sequence (looked up): T1 sequence (looked up) with C29V, C45V, I80A, L85A, L96A
The assay is described as above.

In assay [3] the target is B1. Kind of assay: MST; Alexa Fluor 488-labelled TB_(BtuB) peptide at constant concentration (500 nM mixed 1:1), TonB_(ΔTMD) titrated 7 nM-244 μM in 16 dilutions; 25 mM Tris-HCl pH 7.5, 128 mM NaCl, 5 min at room temperature; fit by the law of mass action.
The target in a further assay is T3, wild-type BtuB (E. coli, UniProt P06129 21-614).
T3 construct: Cyanocobalamin was present at a 100-fold molar excess during reconstitution; also called vitamin B12 TBDT receptor of E. coli
T3 sequence (looked up): T1 sequence (looked up) with C29V, C45V
As to the kind of experiment: single-molecule force spectroscopy (AFM); TonB construct on the AFM probe through NHS-PEG24-maleimide, TBDT (BtuB, its variants or FhuA) in E. coli polar lipid extract liposomes with its ligand adsorbed on mica; dwell 1 s, retraction 1,000 nm s^-1 unless stated otherwise; 25 mM Tris-HCl pH 8.0, 128 mM NaCl, 25 °C; 2 mM DTT added where stated.

B1: the binding result in assay [1] and in assay [2] was “binds” throughout.
Molecule B2 had a Kd in assay [3] of 9.4 ± 0.3 µM.
Consider B3, for which the binding result with wild-type BtuB was “binds”.

The term Kd denotes the concentration at which binding is half-saturated.
